In paper PMC8394153, “Novel Glutamate–Putrescine Ligase Activity in Haloferax mediterranei: A New Function for glnA-2 Gene” (Biomolecules, 2021):

Biological target: the molecule itself
Experiment: SEC; HiPrep 16/60 Sephacryl S-300 High-Resolution column; eluted in 20 mM Tris-HCl, 2 M NaCl, 10 mM MgCl2, pH 7.5, 0.5 mL/min, room temperature; standard proteins 12.5 to 678 kDa; oligomer size from 667 kDa against a 55 kDa monomer (SDS-PAGE)

B1: recombinant GlnA-2 protein (HFX_1688) from Haloferax mediterranei (enzyme, UniProt I3R584 1-446, looked up)
chain: MSDTSTVKSQCEDQNIDLIRLLYVTPSGVIQANTVDVSEVDAAVESGVTLSEVIQVYDAFACRNRNSRFDAVGEVHLCPDPETFRPLPYADRAGAMLCNIRTLDGEPWDVDSRSSLQSVERDLRAKGLSPQVAFESEFSLFSRDGDGKINRGDEAGAYRTESIRGTHDAILHIVDALKAQGIDVKKYHPEFSPGKHEIVTGHHTGLEAADEHLLLRETVKSVAEQDGYQATFLPKPFDDGTNGCHINVSLWNGENQFFDPNHGDISETARQFIAGVLDHAPAVLALTAPTVNSYSRLQPRHGAAGYICWGWLNREALIRVPAPAQGREADSTRIEFRGADNTANPYLGLIGLLAAGNDGIERELEPPEPVSVDPCDLTDAQRTAKGIKRLPQTLGEALDALETNEVLREALGPDLFDAYVEVKRNHWKLFTESAGAWQRERLRNLY
notes: GlnA-2 of Haloferax mediterranei R4 (ATCC 33500T), locus HFX_1688, annotated as glutamine synthetase; monomer 55 kDa by SDS-PAGE; also called glutamate–putrescine ligase; HFX_01688; source: heterologous expression in E. coli, purified (gel filtration); copies: 12
- stoichiometry N: 12
